# Where a SMILES comes first, the peptide text is derived from it. The star is where a group is joined. Cbz = O=C(OCc1ccccc1)*; CH2F = FC*
# T1: biotinylated WT-sFasL (human, UniProt P48023 103-281, biotinylated with EZ-Link Sulfo-NHS-LC-Biotin (sites not given))
# T1 construct: range 103-281; Same protein as WT-sFasL, chemically biotinylated; also called biotinylated wild type sFasL
# T1 sequence (looked up): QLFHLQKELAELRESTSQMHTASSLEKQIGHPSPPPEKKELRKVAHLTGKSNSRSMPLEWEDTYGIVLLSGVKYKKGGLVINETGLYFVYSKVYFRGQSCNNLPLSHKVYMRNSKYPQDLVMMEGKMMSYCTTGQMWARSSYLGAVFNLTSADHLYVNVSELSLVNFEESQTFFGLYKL
# T2: biotinylated WT sFasL (Homo sapiens, UniProt P48023)
# T2 construct: biotin (chemical label, EZ-Link Sulfo-NHS-LC-Biotin); made in house; host or cells: FreeStyle 293-F cells
# T2 sequence (P48023 103-281): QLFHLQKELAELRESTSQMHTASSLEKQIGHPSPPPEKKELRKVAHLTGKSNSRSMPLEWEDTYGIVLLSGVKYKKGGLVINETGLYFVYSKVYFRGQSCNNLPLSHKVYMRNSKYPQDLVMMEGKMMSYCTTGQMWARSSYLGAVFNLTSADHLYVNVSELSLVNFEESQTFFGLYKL
# T3: recombinant human Fas (Homo sapiens, UniProt P25445)
# T3 construct: recombinant human soluble Fas receptors (PeproTech, Rocky Hill, N.J.); purchased PeproTech
# T3 sequence (P25445 26-173 limits assumed): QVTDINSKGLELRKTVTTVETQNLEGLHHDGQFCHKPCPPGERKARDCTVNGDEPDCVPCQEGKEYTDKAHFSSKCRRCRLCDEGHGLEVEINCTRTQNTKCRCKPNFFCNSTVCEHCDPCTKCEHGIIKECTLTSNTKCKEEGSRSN
# B1: FLAG tagged mut-sFasL (ligand, human, UniProt P48023 103-281, looked up)
# chain: QLFALQAALAALAASTSQMATASSLAKQIGHPSPPPEKKELRKVAHLTGKSNSRSMPLEWEDTYGIVLLSGVKYKKGGLVINETGLYFVYSKVYFRGQSCNNLPLSHKVYMRNSKYPQDLVMMEGKMMSYCTTGQMWARSSYLGAVFNLTSADHLYVNVSELSLVNFEESQTFFGLYKL
# notes: range 103-281; C-terminal FLAG tag; also called mut-sFasL-FLAG; 8-mut sFasL-FLAG; not shown: FLAG tag fused in frame after amino acid 281
# B2: mut-sFasL-FLAG: 8-mut sFasL with FLAG tag at the 3′-end of the 281th amino acid coding sequence (protein)
# chain: QLFALQAALAALAASTSQMATASSLAKQIGHPSPPPEKKELRKVAHLTGKSNSRSMPLEWEDTYGIVLLSGVKYKKGGLVINETGLYFVYSKVYFRGQSCNNLPLSHKVYMRNSKYPQDLVMMEGKMMSYCTTGQMWARSSYLGAVFNLTSADHLYVNVSELSLVNFEESQTFFGLYKL
# modifications: left off: small tags and cut ends
# B3: WT-sFasL: wild type human soluble Fas ligand, amino acids 103 to 281, expressed in FreeStyle 293-F cells (protein, UniProt P48023 103-281, looked up, fragment)
# chain: QLFHLQKELAELRESTSQMHTASSLEKQIGHPSPPPEKKELRKVAHLTGKSNSRSMPLEWEDTYGIVLLSGVKYKKGGLVINETGLYFVYSKVYFRGQSCNNLPLSHKVYMRNSKYPQDLVMMEGKMMSYCTTGQMWARSSYLGAVFNLTSADHLYVNVSELSLVNFEESQTFFGLYKL
# Tests used:
# [1] = system: HPAEpiC; conditions: cited from earlier work
# [2] = system: LA4 monolayer; conditions: LA4 cells; cited from earlier work
# [3] = target: T1, biotinylated WT-sFasL; test: mixture captured on streptavidin-coated wells, detected with HRP anti-FLAG antibody
# Procedure: (§1) Serial 3-fold dilutions of FLAG tagged mut-sFasL were mixed with biotinylated WT sFasL (60 ng). The mixtures were incubated at room temperature for 15 minutes and applied to streptavidin-coated wells. FLAG tags were detected with HRP anti-FLAG mAb. There was a dose-dependent increase in FLAG signal in wells incubated with the biotinylated WT sFasL+ and the mut-sFasL-FLAG mixture, showing the formation of complexes of WT and mut-sFasL. […] Data shown as ratio of the absorbance at 450 nm of each experimental condition to that of media only. Data were generated from three separate experiments, each done in duplicate, and were analyzed by 2-way ANOVA with Dunnet's post hoc analysis; comparisons were made to 0 ng/mL for each condition. Each dot represents individual data, lines represent means±SD. *=P<0.05; **=P<0.01, ***P<0.001.
# The mut-sFasL forms complexes with WT sFasL. In order to be active, sFasL must form trimers or higher order multimers. Therefore, it was tested whether the mut-sFasL forms complexes with WT-sFasL. The mixture was incubated in streptavidin-coated well to capture the biotinylated WT-sFasL. After washing unbound material, FLAG was detected using an anti-FLAG antibody, which would detect FLAG-tagged mut-sFasL complexed with biotinylated WT-sFasL. […]
# [4] = target: T2, biotinylated WT sFasL; test: Complex formation of FLAG tagged mut-sFasL with biotinylated WT sFasL on streptavidin-coated wells; type: binding; conditions: fixed biotinylated WT sFasL (60 ng), increasing FLAG-tagged mut-sFasL
# Procedure: as §1, with “mAb.” for “mAb. There was a dose-dependent increase in FLAG signal in wells incubated with the biotinylated WT sFasL+ and the mut-sFasL-FLAG mixture, showing the formation of complexes of WT and mut-sFasL.”
# (§2) Antibodies and Reagents. To prepare immunoaffinity columns, mouse monoclonal anti-human FasL antibodies, clone 100419 (R&D System, Cat #MAB126, RRID:AB 2246667, Minneapolis, Minn.), were used. For the Fas-FasL binding assay, recombinant human soluble Fas receptors (PeproTech, Rocky Hill, N.J.) and biotinylated goat anti-human FasL antibodies (PeproTech Cat #500-P184bt-50 ug, RRID:AB 148184) were used. Mouse anti-human Fas (CD95) monoclonal IgM antibody, clone CH-11 and its isotype control antibody, clone 3D12, were obtained from MBL, Nagoya, Japan (MBL International Cat #SY-001, RRID:AB 591016 and Cat #M077-3, RRID:AB 593057, respectively). FLAG tagged mut-sFasL was detected using HRP anti-FLAG monoclonal antibody (Sigma-Aldrich, Cat #A85920). Unless otherwise indicated, the other chemicals were purchased from Sigma-Aldrich (St. Louis, Mo.).
# (§3) Biotinylation of sFasL. Immunoaffinity purified WT-sFasL was biotinylated with No-Weight Format EZ-Link Sulfo-NHS-LC-Biotin (Pierce, Rockford, Ill., Cat #21327) following the manufacturer's instructions. To capture biotinylated WT-sFasL in the mixtures of biotinylated WT-sFasL and mut-sFasL-FLAG, Streptavidin-variant (Strep-Tactin XT) coated 96-well plates (iba, Gottingen, Germany, Cat #2-4101-001) were used.
# (§4) The mut-sFasL forms complexes with WT sFasL. […] After washing unbound material, FLAG was detected using an anti-FLAG antibody, which would detect FLAG-tagged mut-sFasL complexed with biotinylated WT-sFasL.
# [5] = system: biotinylated WT sFasL; test: as above; type: binding, human; conditions: FLAG-tagged mut-sFasL by itself
# Procedure: as §1, with “mAb.” for “mAb. There was a dose-dependent increase in FLAG signal in wells incubated with the biotinylated WT sFasL+ and the mut-sFasL-FLAG mixture, showing the formation of complexes of WT and mut-sFasL.”
# as §2, §3, §4
# [6] = target: T3, recombinant human Fas; test: Competition assay: binding of biotinylated WT sFasL to plate-coated recombinant human Fas; conditions: biotinylated WT-sFasL 70 ng/mL, Fas coated at 250 ng/mL, serial 3-fold dilutions
# Procedure: The mixtures were incubated for 2 hours in 96-well plates pre-coated with recombinant hsFas (250 ng/ml). After washing unbound material, biotin was detected using HRP conjugated Streptavidin. […] The sFasL bound to Fas was detected using polyclonal anti-human FasL antibodies. […] Different molar ratios of the Fas-activating antibody CH-11 and mut-sFasL were added, and caspase 3/7 activity measured after 5 hours. […] Data represent the results from three separate experiments, each done in duplicate, and were analyzed by 2-way ANOVA with Sidak's post hoc analysis. […] Each dot represents individual data; lines represent means±SD. *=P<0.05; **=P<0.01, ***P<0.001.
# Antibodies and Reagents. […] FLAG tagged mut-sFasL was detected using HRP anti-FLAG monoclonal antibody (Sigma-Aldrich, Cat #A85920). […]
# WT-sFasL inhibition occurs prior to receptor binding. […] Recombinant human Fas at 250 ng/mL were coated and the binding of a fixed concentration of biotinylated WT-sFasL (70 ng/mL) were measured in the presence of serial 3-fold dilutions of either WT-sFasL or mut-sFasL. […] Serial dilutions of either WT-sFasL or mut-sFasL were incubated in wells coated with recombinant human Fas, 5 μg/mL, and after washing, detected sFasL bound to Fas using polyclonal anti-FasL antibodies. […]
molecule,measurement,setting,value
"COC(=O)CC[C@H](NC(=O)[C@H](CC(=O)OC)NC(=O)OCc1ccccc1)C(=O)N[C@H](C(=O)N[C@@H](CC(=O)OC)C(=O)CF)C(C)C [zDEVD.fmk, reference compound]",reversal of sFasL effect on monolayer permeability and ZO-1/occludin expression,"[1]; HPAEpiC, pretreatment",reversed the effect of sFasL on HPAEpiC monolayer permeability and ZO-1/occludin expression
CC(NC(=O)C(NC(=O)OCc1ccccc1)C(C)C)C(=O)NC(CC(=O)O)C(=O)CF (stereo not drawn) [zVAD] (Cbz-Val-Ala-Asp-CH2F; configuration not given here),reversal of cell death and monolayer permeability induced by Jo2,[2],reversed cell death and monolayer permeability induced by Jo2
B1,binding result,[3],binds
B2,FLAG signal (complexes with WT sFasL),[4],dose-dependent increase in FLAG signal
same,binding to streptavidin-coated plate without biotinylated WT sFasL,[5],did not bind to the streptavidin-coated plates
same,binding to streptavidin-coated plate without biotinylated WT sFasL,[5]; listed as FLAG-tagged mut-sFasL,"did not bind to the plate, even at high concentrations"
B3,caspase 3 induction,[1]; HPAEpiC exposed to long form of sFasL,induced caspase 3
same,effect of increasing competitor concentration on binding of biotinylated WT-sFasL to Fas,[6],binding of biotinylated WT-sFasL to Fas decreased

# Source: patent US20220002363A1, “COMPOSITIONS AND METHODS FOR TREATING PULMONARY DISEASE” (United States Government As Represented By The Department …, priority 2020, published 2022)
